Target: T1, RNF31 UBA domain (Homo sapiens, UniProt Q96EP0)
T1 construct: RNF31 UBA domain protein (residues 480-639) with N-terminal Thioredoxin-TEV-6×his-yBBr-3C tags; Thioredoxin (N, cleaved yes); made in house; host or cells: E. coli BL21 (DE3) pLysS
T1 sequence (Q96EP0 480-639): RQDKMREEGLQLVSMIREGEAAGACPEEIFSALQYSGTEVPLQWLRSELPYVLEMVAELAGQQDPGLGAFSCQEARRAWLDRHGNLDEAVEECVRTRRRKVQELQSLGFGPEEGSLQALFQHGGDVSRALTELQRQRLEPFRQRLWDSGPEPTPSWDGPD
Assay: Phage Library Screening with NGS, RNF31 UBA domain
Format: binding
Settings: for Phage library screen NGS readout, Target Concentration 10 / Phage library screen NGS readout, Target Concentration 30 / Phage library screen NGS readout, Target Concentration 100 / Phage library screen NGS readout, Target Concentration 300 / Phage library screen NGS readout, Target Concentration 1000: RNF31 UBA domain cluster C46; for Phage library screen NGS readout, BLANK: cluster C46; for phage screen NGS read-out at Target Concentration 10 / phage screen NGS read-out at Target Concentration 30 / phage screen NGS read-out at Target Concentration 100 / phage screen NGS read-out at Target Concentration 300: no competitor

[1] = target concentration 1000, first column
[2] = target concentration 1000, second column

| Sequence | Phage library screen NGS readout, Target Concentration 10 | Phage library screen NGS readout, Target Concentration 30 | Phage library screen NGS readout, Target Concentration 100 | Phage library screen NGS readout, Target Concentration 300 | Phage library screen NGS readout, Target Concentration 1000 [1] | Phage library screen NGS readout, Target Concentration 1000 [2] | Phage library screen NGS readout, BLANK (column 1 of 5) | Phage library screen NGS readout, BLANK (column 2 of 5) | Phage library screen NGS readout, BLANK (column 3 of 5) | Phage library screen NGS readout, BLANK (column 4 of 5) | Phage library screen NGS readout, BLANK (column 5 of 5) | phage screen NGS read-out at Target Concentration 10 | phage screen NGS read-out at Target Concentration 30 | phage screen NGS read-out at Target Concentration 100 | phage screen NGS read-out at Target Concentration 300 |
| --- | --- | --- | --- | --- | --- | --- | --- | --- | --- | --- | --- | --- | --- | --- | --- |
| DPALQSCLSAAVYCTVS | 0 | 0 | 6 | 10 | 9 | 10 | 0 | 0 | 0 | 0 | 0 | – | – | – | – |
| DPAEQRCLSAAVYCAWH | 1 | 3 | 16 | 18 | 36 | 26 | 0 | 1 | 1 | 0 | 0 | – | – | – | – |
| DPAHEHCTSAAAWCMLL | – | – | – | – | – | – | – | – | – | – | – | 0 | 0 | 0 | 2 |
| DPAQRQCLSAAVWCATF | 10 | 57 | 121 | 199 | 201 | 203 | 1 | 0 | 2 | 1 | 0 | – | – | – | – |
| DPASSHCQSAAIWCYLM | – | – | – | – | – | – | – | – | – | – | – | 1 | 0 | 6 | 35 |
| DPAMIQCLSAAVYCVHY | – | – | – | – | – | – | – | – | – | – | – | 1 | 3 | 8 | – |
| DPAREHCAAAATWCOLL (DPAREHCAAAATWCQLL) | – | – | – | – | – | – | – | – | – | – | – | 1 | 0 | 1 | 28 |
| DPAHHHCQAAAAWCWVM | – | – | – | – | – | – | – | – | – | – | – | 2 | 0 | 4 | 19 |
| DPAFSQCVYAAWHCESL | – | – | – | – | – | – | – | – | – | – | – | 1 | 0 | 2 | 7 |
| DPAEWICEMAAHNCLYM | – | – | – | – | – | – | – | – | – | – | – | 0 | 1 | 1 | 1 |
| DPANEHCIAAAWWCQIL | – | – | – | – | – | – | – | – | – | – | – | 0 | 0 | 0 | 3 |
| DPAYEHCVAAAYWCYLL | – | – | – | – | – | – | – | – | – | – | – | 1 | 0 | 11 | 30 |
| DPALRTCLSAAVFCAVA | 0 | 6 | 10 | 18 | 15 | 25 | 0 | 0 | 1 | 0 | 1 | – | – | – | – |
| DPASMVCLSAAVYCAMH | – | – | – | – | – | – | – | – | – | – | – | 1 | 15 | 38 | 77 |
| DPAQQICLSAAVFCSIF | – | – | – | – | – | – | – | – | – | – | – | 0 | 0 | 4 | 10 |
| DPAFSRCVYAAVACEDH | – | – | – | – | – | – | – | – | – | – | – | 0 | 1 | 3 | 31 |
| DPALQHCAAAASWCWLM | – | – | – | – | – | – | – | – | – | – | – | 1 | 2 | 4 | 20 |
| DPAEYHCDAAAVWCYLM | – | – | – | – | – | – | – | – | – | – | – | 0 | 0 | 2 | 19 |
| DPAFSACVYAAYMCNQD | – | – | – | – | – | – | – | – | – | – | – | 0 | 0 | 1 | 4 |
| DPAQNHCDSAAVFCYIL | – | – | – | – | – | – | – | – | – | – | – | 0 | 0 | 1 | 8 |
| DPAASQCFSAAVYCAWI | 0 | 0 | 8 | 13 | 16 | 13 | 0 | 0 | 0 | 1 | 0 | – | – | – | – |
| DPAFSLCVYAALFCEQQ | – | – | – | – | – | – | – | – | – | – | – | 0 | 0 | 8 | 20 |

The remaining lines, values ahead:

| Phage library screen NGS readout, Target Concentration 10 | Phage library screen NGS readout, Target Concentration 30 | Phage library screen NGS readout, Target Concentration 100 | Phage library screen NGS readout, Target Concentration 300 | Phage library screen NGS readout, Target Concentration 1000 [1] | Phage library screen NGS readout, Target Concentration 1000 [2] | Phage library screen NGS readout, BLANK (column 1 of 5) | Phage library screen NGS readout, BLANK (column 2 of 5) | Phage library screen NGS readout, BLANK (column 3 of 5) | Phage library screen NGS readout, BLANK (column 4 of 5) | Phage library screen NGS readout, BLANK (column 5 of 5) | phage screen NGS read-out at Target Concentration 10 | phage screen NGS read-out at Target Concentration 30 | phage screen NGS read-out at Target Concentration 100 | phage screen NGS read-out at Target Concentration 300 | Sequence |
| --- | --- | --- | --- | --- | --- | --- | --- | --- | --- | --- | --- | --- | --- | --- | --- |
| – | – | – | – | – | – | – | – | – | – | – | 0 | 0 | 3 | 19 | DPAFSTCIYAAVMCMDQ |
| – | – | – | – | – | – | – | – | – | – | – | 2 | 0 | 1 | 1 | DPAFSECVYAATMCLNH |
| – | – | – | – | – | – | – | – | – | – | – | 0 | 0 | 0 | 2 | DPAFSQCIYAAFQCDMQ |
| – | – | – | – | – | – | – | – | – | – | – | 1 | 0 | 2 | 20 | DPAFSQCVYAAFFCREI |
| – | – | – | – | – | – | – | – | – | – | – | 0 | 0 | 1 | 14 | DPAREHCDSAAIFCYIL |
| – | – | – | – | – | – | – | – | – | – | – | 0 | 0 | 1 | 8 | DPAFSTCVYAAVFCQNT |
| 5 | 19 | 45 | 86 | 88 | 97 | 0 | 0 | 0 | 0 | 0 | – | – | – | – | DPAAQACLSAAVFCAWY |
| – | – | – | – | – | – | – | – | – | – | – | 0 | 2 | 0 | 4 | DPALSQCVYAAVFCQNL |
| – | – | – | – | – | – | – | – | – | – | – | 0 | 0 | 0 | 3 | DPAFFTCVYAAVTCEMT |
| 0 | 0 | 4 | 5 | 8 | 4 | 0 | 0 | 0 | 0 | 0 | – | – | – | – | DPAQMFCYSAAVYCAAF |
| – | – | – | – | – | – | – | – | – | – | – | 0 | 1 | 0 | 2 | DPAAFVCEMAANDCLYT |
| – | – | – | – | – | – | – | – | – | – | – | 0 | 0 | 0 | 7 | DPAFSECVYAAIYCVHS |
